Experimental data: paper doi:10.1101/2022.08.24.505078, “Cyclic AMP competitively inhibits periplasmic phosphatases to coordinate nutritional growth with competence development of Haemophilus influenzae” (bioRxiv, 2022)

B1: AphAEc-His6 (periplasmic acid phosphatase AphA of E. coli, signal peptide removed, C-terminal six-histidine tag) (enzyme, UniProt P0AE22 26-237, looked up)
chain: SSPSPLNPGTNVARLAEQAPIHWVSVAQIENSLAGRPPMAVGFDIDDTVLFSSPGFWRGKKTFSPESEDYLKNPVFWEKMNNGWDEFSIPKEVARQLIDMHVRRGDAIFFVTGRSPTKTETVSKTLADNFHIPATNMNPVIFAGDKPGQNTKSQWLQDKNIRIFYGDSDNDITAARDVGARGIRILRASNSTYKPLPQAGAFGEEVIVNSEY
notes: AphA, non-specific periplasmic acid phosphatase of E. coli, with the N-terminal signal peptide removed; also called AphA-His6; Ct His6 tagged AphAEc; source: E. coli, purified (Ni-NTA, size exclusion chromatography on Superdex 200 Increase); not shown: His6, C-terminal, kept
B2: His6-AphAEc (periplasmic acid phosphatase AphA of E. coli, signal peptide removed, N-terminal six-histidine tag) (enzyme, UniProt P0AE22 26-237, looked up)
chain: SSPSPLNPGTNVARLAEQAPIHWVSVAQIENSLAGRPPMAVGFDIDDTVLFSSPGFWRGKKTFSPESEDYLKNPVFWEKMNNGWDEFSIPKEVARQLIDMHVRRGDAIFFVTGRSPTKTETVSKTLADNFHIPATNMNPVIFAGDKPGQNTKSQWLQDKNIRIFYGDSDNDITAARDVGARGIRILRASNSTYKPLPQAGAFGEEVIVNSEY
notes: AphA, non-specific periplasmic acid phosphatase of E. coli, with the N-terminal signal peptide removed; also called Nt His6 tagged AphAEc; source: E. coli, purified (Ni-NTA, size exclusion chromatography on Superdex 200 Increase); not shown: His6, N-terminal, kept
B3: tag-less AphAEc (AphA of E. coli after removal of the N-terminal His6-SUMO tag by Ulp1) (enzyme)
chain: SPSPLNPGTNVARLAEQAPIHWVSVAQIENSLAGRPPMAVGFDIDDTVLFSSPGFWRGKKTFSPESEDYLKNPVFWEKMNNGWDEFSIPKEVARQLIDMHVRRGDAIFFVTGRSPTKTETVSKTLADNFHIPATNMNPVIFAGDKPGQNTKSQWLQDKNIRIFYGDSDNDITAARDVGARGIRILRASNSTYKPLPQAGAFGEEVIVNSEY
notes: AphA, non-specific periplasmic acid phosphatase of E. coli; protein of around 25 kDa after cleavage; The linker between SUMO and AphA was removed by mutagenesis; also called cleaved tag-less AphAEc; source: E. coli, purified as His6-SUMO-AphAEc, tag cleaved off with His6-Ulp1, size exclusion chromatography; not shown: His6-SUMO, N-terminal, cleaved

Biological target: the molecule itself
Experiment: SEC; purified protein on a Superdex 200 Increase 10/300 GL column; size read against standard proteins

Protein	stoichiometry N
B1	2
B2	4
B3	4
